This note sets out measurements from patent US20220403363A1.

Data set [1] relates to gxpS_A3T3C/E4A4T4TE without SYNZIP (protein encoded by plasmid pJW83).
Data set [2] relates to SYNZIP18-gxpS_A3T3C/E4A4T4TE (protein encoded by plasmid pJW76).
In data set [3] the test system is T1, SYNZIP18-xtpS_A3T3C/E4A4T4TE (protein encoded by plasmid pJW62).
T1 sequence: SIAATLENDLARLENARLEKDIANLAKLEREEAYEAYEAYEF

Data set [4] has as its system xtpS_A3T3C/E4A4T4TE without SYNZIP (protein encoded by plasmid pJW64).
For data set [5], the system named is xtpS_T2-TE without SYNZIP (protein encoded by plasmid pNA12).
The subject of data set [6] is T2, SYNZIP18-xtpS_T2C3A3T3C/E4A4T4TE (protein encoded by plasmid pNA5).
T2 sequence: T1 sequence

Data set [7] addresses gxpS_A3T3C/E4A4T4TE without SYNZIP (protein encoded by plasmid pJW83). The experiment in a line: cell-based or functional assay.
Data set [8] deals with GlbD second part (from the T domain) without SZ.
The test system of data set [9] is GlbD second part (from the T domain) with SZ18.

As for “xldS_C1A1T1C/E2A2T2C3-SYNZIP17 (protein encoded by plasmid pJW93)”, in [1], the “peptide production by NRPS-5b (negative control without SZ18) against NRPS-5a (HPLC-MS)” value was “the negative control (NRPS-5b) showed no significant difference in peptide production from the NRPS-5a construct”. Moreover, in [2], the “peptide production by NRPS-5a in E. coli (HPLC-MS)” value was “showed the production of most expected derivatives”.
In the case of “ambS_A1T1C/E2A2T2C3-SYNZIP17 (protein encoded by plasmid pJW91)”, in data set [1], the “production of peptide 9 by NRPS-3b (no N-terminal SZ) relative to NRPS-3a (HPLC-MS)” value is on record as “peptide 9 to ˜18%”; the “production of peptides 7 and 8 by NRPS-3b (no N-terminal SZ) relative to NRPS-3a (HPLC-MS)” value was 7 and 8 were only produced to ˜50%. Further, in [2], the “peptide production by NRPS-3a in E. coli (HPLC-MS), peptides 7, 8 and 9” value was “The peptides 7, 8 and 9, which eluted at a retention time of 6 min, 7.1 min and 7 min, could be identified on the basis of their mass”.
For the substance “szeS_C1A1T1C/E2A2T2C3-SYNZIP17 (protein encoded by plasmid pJW92)”, the “peptide production by NRPS-4a in E. coli (HPLC-MS), peptides 10 and 11” value in data set [2] is “Both the mass of 10 and the mass of 11 could be detected in the extracted ion chromatogram (EIC)”.
On to “xtpS_A1T1C/E2A2T2C3 without SYNZIP (protein encoded by plasmid pJW63)”, for which, in data set [3], the “decrease in production of cyclic peptide 2 by NRPS-16c in relation to NRPS-16a (both SZs)” value is given as “control NRPS-16c shows a decrease in the production of cyclic peptide 2 by 80%” and the “production of peptide 2 by NRPS-16c (no C-terminal SZ), % of WT level (HPLC-MS)” value is listed as “NRPS-16c showed only a very low production of 2 with 3.2% of the WT level”. Besides, the “peptide production by NRPS-16d (no SZs) (HPLC-MS)” value in [4] was “showed no peptide production for control experiments NRPS-16b and NRPS-16d”.
On to “xtpS_A1T1C/E2A2T2C3-GS(8)-SYNZIP17 (protein encoded by plasmid pNA9)”, for which, in [3], the “increase in productivity for cyclic peptide 2 against the construct without linker (average over NRPS-15b, -15c, -15d)” value was “an average increase in productivity of ˜37% for cyclic 2 and ˜26% for linear peptide 1”; the “increase in productivity for linear peptide 1 against the construct without linker (average over NRPS-15b, -15c, -15d)” value is “an average increase in productivity of ˜37% for cyclic 2 and ˜26% for linear peptide 1”; the “production of cyclic product 2 by NRPS-15c (8 AS GS linker) (HPLC-MS)” value is recorded as “the cyclic product 2 with almost WT level was produced for all constructions with GS linker”.
As for “xtpS_A1T1C/E2A2T2C3-GS(4)-SYNZIP17 (protein encoded by plasmid pNA10)”, in data set [3], the “increase in productivity for cyclic peptide 2 against the construct without linker (average over NRPS-15b, -15c, -15d)” value is “an average increase in productivity of ˜37% for cyclic 2 and ˜26% for linear peptide 1”; the “increase in productivity for linear peptide 1 against the construct without linker (average over NRPS-15b, -15c, -15d)” value is “an average increase in productivity of ˜37% for cyclic 2 and ˜26% for linear peptide 1”; the “production of cyclic product 2 by NRPS-15d (4 AS GS linker) (HPLC-MS)” value is “the cyclic product 2 with almost WT level was produced for all constructions with GS linker”.
With “xtpS_A1T1C/E2A2T2C3-SYNZIP19 (protein encoded by plasmid pNA1)”, in data set [3], the “production of cyclic peptide 2 by NRPS-16 (C-A split, SZ19/18) relative to WT XtpS (HPLC-MS)” value is reported as 13% (NRPS-16) and the “production of linear peptide 1 by NRPS-16 (HPLC-MS)” value is “NRPS-16 showed no production of 1”. Moreover, the “peptide production by NRPS-16b (no N-terminal SZ) (HPLC-MS)” value in [4] is “showed no peptide production for control experiments NRPS-16b and NRPS-16d”.
For the substance “xtpS_A1T1C/E2A2T2C3-GS(10)-SYNZIP17 (protein encoded by plasmid pNA8)”, in data set [3], the “increase in productivity for cyclic peptide 2 against the construct without linker (average over NRPS-15b, -15c, -15d)” value is “an average increase in productivity of ˜37% for cyclic 2 and ˜26% for linear peptide 1”; the “increase in productivity for linear peptide 1 against the construct without linker (average over NRPS-15b, -15c, -15d)” value is “an average increase in productivity of ˜37% for cyclic 2 and ˜26% for linear peptide 1”; the “production of cyclic product 2 by NRPS-15b (10 AS GS linker) (HPLC-MS)” value is on record as “the cyclic product 2 with almost WT level was produced for all constructions with GS linker”.
On to “xtpS_A1T1C/E2A2 without SYNZIP (protein encoded by plasmid pNA11)”, for which, in [5], the “decrease in productivity of NRPS-14d compared to NRPS-14a (told of the controls overall)” value is given as “Overall, the controls showed a decrease in productivity of 90% compared to NRPS-14a”; the “production of peptides 2 and 1 by NRPS-14d (no SZs), % of WT level (HPLC-MS)” value is “showed a very low production of the cyclic product 2 and absolutely no production of the linear peptide 1 at ˜3-10% of the WT level”. In [6], the “decrease in productivity of NRPS-14c compared to NRPS-14a (told of the controls overall)” value was “Overall, the controls showed a decrease in productivity of 90% compared to NRPS-14a”; the “production of peptides 2 and 1 by NRPS-14c (no C-terminal SZ), % of WT level (HPLC-MS)” value is “showed a very low production of the cyclic product 2 and absolutely no production of the linear peptide 1 at ˜3-10% of the WT level”.
As to “szeS_C1A1T1C/E2A2T2C3-SYNZIP17 (protein encoded by plasmid pJW92) (enzyme)”, the decrease of peptides 10 and 11 in NRPS-4b (no N-terminal SZ) against NRPS-4a (HPLC-MS) in data set [7] turned out to be 80 % decrease.
As to “GlbD first part (up to the A domain) with SZ17”, the “glidobactin A production, negative control without one SZ” value in data set [8] is on record as “In the negative controls without in each case one or both SZs, there is virtually no glidobactin A production”. Besides, the “glidobactin A production by the PKS/NRPS hybrid with divided GlbD” value in data set [9] is “leads to a complete synthesis of the glidobactin peptide”.
Take “GlbD first part (up to the A domain) without SZ”: the “glidobactin A production, negative control without both SZs” value in [8] was “In the negative controls without in each case one or both SZs, there is virtually no glidobactin A production”. The “glidobactin A production, negative control without one SZ” value in data set [9] was “In the negative controls without in each case one or both SZs, there is virtually no glidobactin A production”.
